Source: US20210147523A1 (TEIJIN PHARMA, published 2021)

T1: Mutant 1 of human SPNS2 (FLAG tag inserted in extracellular loop 1) (human, UniProt Q8IVW8 1-549)
T1 construct: on HEK293 cells; also called extracellular loop 1 mutant
T1 sequence: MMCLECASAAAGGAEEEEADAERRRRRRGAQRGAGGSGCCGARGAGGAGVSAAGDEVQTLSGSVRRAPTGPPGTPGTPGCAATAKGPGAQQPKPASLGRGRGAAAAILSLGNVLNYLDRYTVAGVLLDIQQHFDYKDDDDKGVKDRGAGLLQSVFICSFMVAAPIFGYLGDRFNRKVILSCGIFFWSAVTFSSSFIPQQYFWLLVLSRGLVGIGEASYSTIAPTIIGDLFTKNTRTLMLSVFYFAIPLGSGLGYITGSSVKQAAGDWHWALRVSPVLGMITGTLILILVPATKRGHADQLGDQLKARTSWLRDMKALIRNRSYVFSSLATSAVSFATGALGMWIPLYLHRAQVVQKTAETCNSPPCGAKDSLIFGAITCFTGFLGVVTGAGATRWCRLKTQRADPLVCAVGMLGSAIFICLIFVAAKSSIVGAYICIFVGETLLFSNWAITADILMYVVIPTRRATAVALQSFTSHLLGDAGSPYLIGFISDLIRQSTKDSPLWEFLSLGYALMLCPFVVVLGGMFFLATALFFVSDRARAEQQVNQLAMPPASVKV

T2: Mutant 3 of human SPNS2 (FLAG tag inserted in extracellular loop 7) (human, UniProt Q8IVW8 1-549)
T2 construct: on HEK293 cells; also called extracellular loop 7 mutant
T2 sequence: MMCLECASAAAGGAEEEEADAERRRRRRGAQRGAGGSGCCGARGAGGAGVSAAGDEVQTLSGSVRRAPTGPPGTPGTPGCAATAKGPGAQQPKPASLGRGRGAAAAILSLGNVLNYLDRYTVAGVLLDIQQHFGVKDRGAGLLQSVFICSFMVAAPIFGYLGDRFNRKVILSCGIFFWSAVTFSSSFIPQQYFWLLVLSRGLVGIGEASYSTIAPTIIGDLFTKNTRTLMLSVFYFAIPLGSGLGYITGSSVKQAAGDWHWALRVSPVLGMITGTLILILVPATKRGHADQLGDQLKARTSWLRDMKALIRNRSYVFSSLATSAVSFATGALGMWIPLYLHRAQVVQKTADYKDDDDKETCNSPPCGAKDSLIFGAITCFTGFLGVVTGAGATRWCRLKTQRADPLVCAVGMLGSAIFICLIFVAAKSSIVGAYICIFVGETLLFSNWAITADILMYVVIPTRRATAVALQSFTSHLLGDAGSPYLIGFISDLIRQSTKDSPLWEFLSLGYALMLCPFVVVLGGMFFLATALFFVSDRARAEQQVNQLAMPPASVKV

T3: Mutant 2 of human SPNS2 (FLAG tag inserted in extracellular loop 5) (human, UniProt Q8IVW8 1-549)
T3 construct: on HEK293 cells; also called extracellular loop 5 mutant
T3 sequence: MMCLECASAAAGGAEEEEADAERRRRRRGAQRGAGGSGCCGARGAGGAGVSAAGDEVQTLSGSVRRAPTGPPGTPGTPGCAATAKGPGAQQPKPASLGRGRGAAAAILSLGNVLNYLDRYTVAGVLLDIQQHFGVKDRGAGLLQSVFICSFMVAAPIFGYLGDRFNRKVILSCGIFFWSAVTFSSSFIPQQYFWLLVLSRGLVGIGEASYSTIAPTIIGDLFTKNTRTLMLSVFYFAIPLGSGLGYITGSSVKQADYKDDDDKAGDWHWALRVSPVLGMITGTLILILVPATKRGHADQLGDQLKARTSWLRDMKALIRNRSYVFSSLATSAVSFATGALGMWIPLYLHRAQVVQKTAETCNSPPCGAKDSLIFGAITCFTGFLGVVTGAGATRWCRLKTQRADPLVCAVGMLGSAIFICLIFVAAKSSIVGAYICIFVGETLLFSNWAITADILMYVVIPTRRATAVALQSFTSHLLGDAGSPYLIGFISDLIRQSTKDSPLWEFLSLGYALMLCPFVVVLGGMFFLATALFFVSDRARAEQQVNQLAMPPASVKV

T4: human SPNS2 (human, UniProt Q8IVW8 1-549)
T4 sequence: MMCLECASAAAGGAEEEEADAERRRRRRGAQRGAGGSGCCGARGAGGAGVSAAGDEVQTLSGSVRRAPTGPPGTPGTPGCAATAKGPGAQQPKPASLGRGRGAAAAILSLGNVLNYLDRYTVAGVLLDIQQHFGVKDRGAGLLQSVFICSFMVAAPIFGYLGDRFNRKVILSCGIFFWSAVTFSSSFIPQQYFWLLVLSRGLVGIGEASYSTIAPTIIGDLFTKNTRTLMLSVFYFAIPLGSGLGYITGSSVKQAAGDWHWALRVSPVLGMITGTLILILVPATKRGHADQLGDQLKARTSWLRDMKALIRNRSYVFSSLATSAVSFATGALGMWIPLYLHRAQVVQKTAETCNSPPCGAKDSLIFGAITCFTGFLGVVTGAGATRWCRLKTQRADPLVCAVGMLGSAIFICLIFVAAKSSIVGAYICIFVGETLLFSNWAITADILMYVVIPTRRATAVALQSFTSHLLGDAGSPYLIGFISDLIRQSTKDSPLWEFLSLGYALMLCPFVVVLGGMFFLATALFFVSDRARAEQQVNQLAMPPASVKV


Key:
[1] = target: T1, Mutant 1 of human SPNS2 (FLAG tag …); experiment: flow cytometry, FLAG-insertion mutant
Summary of the method: (§1)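 HEK 293 cells were lipofected with the mutant and cultured overnight, then stained 30 min at room temperature with anti-FLAG and anti-SPNS2 antibodies, each at 20 μg/mL. Detection used anti-mouse IgG-Alexa 647 and anti-rat IgG-FITC. Binding is the ratio of FITC-positive to Alexa 647-positive cell rate, scored (+) <0.1, (±) 0.1–<0.5, (−) ≥0.5.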

[2] = target: T2, Mutant 3 of human SPNS2 (FLAG tag …); experiment: flow cytometry, FLAG-insertion mutant
Summary of the method: as §1

[3] = target: T3, Mutant 2 of human SPNS2 (FLAG tag …); experiment: flow cytometry, FLAG-insertion mutant
Summary of the method: as §1

human SPNS2 = target: T4, human SPNS2; experiment: cell-based or functional assay

Binder	FITC+/Alexa 647+ cell rate ratio [1]	FITC+/Alexa 647+ cell rate ratio [2]	FITC+/Alexa 647+ cell rate ratio [3]	pIC50, S1P transport inhibition (LC-MS/MS of S1P) (human SPNS2)
83-1110B (antibody, IgG2b, V domains shown) VH: EVQLQQSGPEFVRPGTSVKFSCKVSGGSITSYFIHFVKQRPGQGLEWIGKIDPEDDSTKYGEKFKNKATLTADTSSNTAFLKLSSLTSEDTAIYFCTTLTGLDYWGQGVMVTVSS VL: DIQMTQSPPVLSAAVGDRVTLSCKASRSLNKNLDWYQQKHGETPKLLIYHTHNLQTGIPSRFSGSGSDTDYTLTISSLQTEDVATYYCYQYHSGWTFGGGTRLELRR	< 0.1 ratio	≥ 0.5 ratio	< 0.1 ratio	7.9 pIC50 (M)
94-1311E (antibody, V domains shown) VH: EVQLQQSGAGLVRPRTSVRLSCKISGDSITAYYVHFVKQRPGQGLEWIGRIDPEDDSTKYSEKFKNKATLTADVSSSTAYLILSSLTSDDSATYFCSTLTGLDYWGQGVMVTVSS VL: DIQMTQSPPVLSASVGDRVTLSCKASQSVHNKLDWYQQKHGEAPKLLIYYTHNLQTGIPSRFSGSGSGSDYTLTISSLRAEDVATYYCFQYYSGWTFGGGTKLEMKR	< 0.1 ratio	≥ 0.5 ratio	< 0.1 ratio	7.9 pIC50 (M)
49-0703G (antibody, IgG2b, V domains shown) VH: EVQLVESGGGLVQPGRSMKLSCAASGFTFSNHYMAWVRQAPTKGLEWVASISTGGGNTYYRDSVKGRFTISRDNAKSTLYLQMDSLRSEDTATYYCARQDYSNYMGGFAYWGQGTLVTVSS VL: QFVLTQPNSVSTNLGSTVKLSCKRSTGNIGNNYVNWYQQYEGRSPTTMIYRDDERPDGVPDRFSGSIDRSSNSALLTINNVQTEDEADYFCQSFSNGMFIFAGGTQLTVL	< 0.1 ratio	≥ 0.5 ratio	< 0.1 ratio	7.4 pIC50 (M)
33-0503E (antibody, IgG2b, V domains shown) VH: EVQLVESGGGLVRPGGSMKLSCGASGFIFDNYYMTWVRQAPTKGLEWVASISSSGGNTYYRDSVRGRFTISRDNAGNTLSLQMGSLRAEDTATYHCAKEGYRGRYFDYWGQGVMVTVSS VL: QVVLTQPNSVSTNLGSTVKLSCKRTTGNIGSNYVNWYQQHEGRSPTTMIYRDDERPDGVPDRFSGSIDRSSNSALLTINNVQTEDEAEYFCQSYSSGIIFGGGTKLTVL	< 0.1 ratio	≥ 0.5 ratio	< 0.1 ratio	7.4 pIC50 (M)
80-1104A (antibody, IgG2b, V domains shown) VH: EVQLVETGGGLVQPGSSLKLSCSTSGFTFSETWMSWVRQAPGKGLEWVGLIKDKNSNYEANYAESVKGRFTISRDDSKRRVYLQMYTLRDQDTATYYCTSHEDFYYYSSYYFDYWGQGVMVTVSS VL: DIVLTQSPATLSVTPGESVSLSCRASQGISTSIHWYQQKSNESPRLLIKYASQSMSGIPSRFSGSGSGTDFTLRINRVESEDFSVYYCQQSYNLPLTFGSGTKLEIKR	< 0.1 ratio	≥ 0.5 ratio	≥ 0.5 ratio	7.7 pIC50 (M)
93-1310F (antibody, IgG2b, V domains shown) VH: EVQLVETGGGLVQPGSSLKLSCATSGFTFSDTWMSWVRQAPGKGLEWVALIKDKNSNYEANYAESVKGRFTISRDDSKRRVYLQMFTLRDQDTATYYCTSHEDFYYYSSYYFDYWGHGVMVTVSS VL: DIVLTQSPATLSVTPGESVSLSCRASQGISTSIHWYQQKSNGSPRLLIKYASQSISGIPSRFSGSGSGTDFTLRINRVESEDFSVYYCQQTYSLPLTFGSGTRLEIKR	< 0.1 ratio	≥ 0.5 ratio	≥ 0.5 ratio	7.6 pIC50 (M)
